{"source": "patent US10570379B2", "about": "“Polypeptides for carbon-carbon bond formation and uses thereof” (INVISTA North America S.à.r.l., priority 2015, dated 2020)", "molecules": {"B1": {"name": "E324G: YdiF mutant, glycine for the glutamate in position 324, SEQ ID NO: 3 (protein)", "chain": "MGHHHHHHSSGLVPRGSMRKVPIITADEAAKLIKDGDTVTTSGFVGNAIPEALDRAVEKRFLETGEPKNITYVYCGSQGNRDGRGAEHFAHEGLLKRYIAGHWATVPALGKMAMENKMEAYNVSQGALCHLFRDIASHKPGVFTKVGIGTFIDPRNGGGKVNDITKEDIVELVEIKGQEYLFYPAFPIHVALIRGTYADESGNITFEKEVAPLEGTSVCQAVKNSGGIVVVQVERVVKAGTLDPRHVKVPGIYVDYVVVADPEDHQQSLDCEYDPALSGEHRRPEVVGEPLPLSAKKVIGRRGAIELEKDVAVNLGVGAPEYVASVADEEGIVDFMTLTAGSGAIGGVPAGGVRFGASYNADALIDQGYQFDYYDGGGLDLCYLGLAECDEKGNINVSRFGPRIAGCGGFINITQNTPKVFFCGTFTAGGLKVKIEDGKVIIVQEGKQKKFLKAVEQITFNGDVALANKQQVTYITERCVFLLKEDGLHLSEIAPGIDLQTQILDVMDFAPIIDRDANGQIKLMDAALFAEGLMGLKEMKS"}}, "key": {"[1]": {"assay": "Mutant E324G provided with propionyl-CoA and acetyl-CoA", "type": "biochemical", "conditions": "propionyl-CoA + acetyl-CoA", "description": "(§1) Acetyl-CoA was used at a final concentration of 1.5 mM and 30 mM of the substrate being studied (e.g. carboxylic acid salts, such as sodium acrylate) or 1.5 mM of propionyl-CoA in 50 mM Hepes buffer (pH 7.5). The reaction was started by addition of 0.5 mg/mL of YdiF pure protein or mutants to a final volume of 250 μL and incubated for 1 to 10 hours at 30° C.\n(§2) All samples were prepared in triplicate and spun down at 15000 g for 20 min at 4° C. Detection of the thiol product (e.g. acryloyl-CoA) synthesized from CoA-transferase activity and the keto-thiol product (e.g. 3-oxopent-4-enoyl-CoA) due to putative thiolase activity of YdiF (or homologues) was carried out by Liquid Chromatography coupled to a qTof-Mass spectrometry (in positive mode), using a C18 column (Zorbax Eclipse C18, 2.1×50 mm, 1.8μ, Agilent, code product: 959757-902) and a gradient of 10 mM ammonium acetate and acetonitrile as mobile phase.\n(§3) Mutations were introduced as described in Example 1 to replace the glutamate in position 324 of YdiF (see Selmer et al., 2002) with glycine (mutant E324G) or leucine (E324L). Activity of the mutant enzymes was studied as described in Example 2."}, "[2]": {"assay": "Activity of YdiF mutant enzymes (evaluation of potential active sites)", "type": "biochemical", "conditions": "studied as in Example 2", "description": "YdiF mutants were prepared using the relevant primers to introduce the mutated bases via the Quick change lightning kit (Agilent, code product: 210518-5), and cloned into E. coli. In addition, all the proteins used in this experiment have the following extra amino acids added in the N-terminal extremity of the original protein sequence (SEQ ID NO:1): […]. Those additional amino acids correspond to: two amino acids (M and G), a 6×His-tag followed by a 3 amino acids linker (SSG), and a specific proteolytic cleavage site (thrombin site, underlined) (SEQ ID NO: 22). All the sequences were confirmed by DNA sequencing.\nas §1, §2\nMutations were introduced as described in Example 1 at the following positions previously found to be potentially involved in the active site of other β-ketothiolases: C258A, S60A, C112A, S38A, C390A. Activity of the mutant enzymes was studied as described in Example 2.\nas §3"}}, "data": [{"molecule": "B1", "values": [{"measurement": "keto-thiol product (3-oxopentanoyl-CoA)", "setting": "[1]", "value": "presence of the keto-thiol product"}, {"measurement": "transferase activity", "setting": "[2]", "value": "Abolition of transferase activity"}]}]}
